In article PMC7966745, “Elucidation of transient protein-protein interactions within carrier protein-dependent biosynthesis” (Communications Biology, 2021):

T1: TesA, E. coli thioesterase (E. coli, UniProt P0ADA1 27-208)
T1 construct: TesA thioesterase 1, E. coli; the natural protein is periplasmic; source: E. coli BL21 (DE3), purified (Ni-IMAC, Superdex 75)
T1 sequence: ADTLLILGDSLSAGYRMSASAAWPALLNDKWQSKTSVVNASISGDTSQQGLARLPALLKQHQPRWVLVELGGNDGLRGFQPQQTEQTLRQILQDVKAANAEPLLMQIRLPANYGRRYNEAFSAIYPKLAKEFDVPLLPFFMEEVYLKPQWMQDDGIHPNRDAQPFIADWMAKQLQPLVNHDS

T2: FabF, E. coli elongating ketosynthase (E. coli, UniProt P0AAI5 2-413)
T2 construct: ketosynthase FabF (3-oxoacyl-ACP synthase 2), E. coli; also called KS; source: E. coli BL21 (DE3), purified (Ni-IMAC, Superdex 75)
T2 sequence: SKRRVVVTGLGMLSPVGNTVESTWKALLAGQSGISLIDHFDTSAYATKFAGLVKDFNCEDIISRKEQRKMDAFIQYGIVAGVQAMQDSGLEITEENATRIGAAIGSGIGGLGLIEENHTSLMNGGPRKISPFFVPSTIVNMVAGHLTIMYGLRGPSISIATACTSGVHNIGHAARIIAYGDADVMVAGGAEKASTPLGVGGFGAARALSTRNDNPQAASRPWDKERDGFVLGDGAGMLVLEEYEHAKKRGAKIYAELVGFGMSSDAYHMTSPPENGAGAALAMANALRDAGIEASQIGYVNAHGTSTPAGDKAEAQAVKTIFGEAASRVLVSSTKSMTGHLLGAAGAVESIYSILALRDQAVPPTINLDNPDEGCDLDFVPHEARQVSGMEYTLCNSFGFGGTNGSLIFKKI

T3: TesA, E. coli thioesterase (E. coli, UniProt P0ADA1 27-208)
T3 construct: thioesterase TesA (thioesterase 1), E. coli; source: E. coli BL21 (DE3), purified (Ni-IMAC, Superdex 75)
T3 sequence: T1 sequence

B1: octanoyl-AcpP (15N-C8-AcpP), E. coli acyl carrier protein (natural protein)
chain: STIEERVKKIIGEQLGVKQEEVTNNASFVEDLGADSLDTVELVMALEEEFDTEIPDEEAEKITTVQAAIDYINGHQA
modifications: octanoyl pantethenamide probe loaded as a 4'-phosphopantetheine analog (amide linked octanoyl) on S36; uniformly 15N labeled and perdeuterated
notes: Acyl carrier protein AcpP of E. coli; Grown on a His-tagged pET-22b vector; also called amide linked octanoyl AcpP; source: E. coli BL21 (DE3), M9 minimal media with 15N NH4Cl and D2O, purified; made apo with ACPH, then loaded with an octanoyl pantethenamide probe (CoaA, CoaD, CoaE, Sfp)
B2: FabF, elongating ketosynthase of E. coli fatty acid biosynthesis (enzyme)
chain: T2 sequence
notes: FabF ketosynthase (3-oxoacyl-ACP synthase 2), E. coli; also called KS; source: E. coli BL21 (DE3), purified (Ni-IMAC, Superdex 75)
B3: FabI, enoylreductase of E. coli fatty acid biosynthesis (enzyme)
chain: MGFLSGKRILVTGVASKLSIAYGIAQAMHREGAELAFTYQNDKLKGRVEEFAAQLGSDIVLQCDVAEDASIDTMFAELGKVWPKFDGFVHSIGFAPGDQLDGDYVNAVTREGFKIAHDISSYSFVAMAKACRSMLNPGSALLTLSYLGAERAIPNYNVMGLAKASLEANVRYMANAMGPEGVRVNAISAGPIRTLAASGIKDFRKMLAHCEAVTPIRRTVTIEDVGNSAAFLCSDLSAGISGEVVHVDGGFSIAAMNELELK
notes: FabI enoyl-ACP reductase, E. coli; titrated with 0.5 mM NAD+ in the buffer; also called ER; source: E. coli BL21 (DE3), purified (Ni-IMAC, Superdex 75)
B4: FabG, ketoreductase of E. coli fatty acid biosynthesis (enzyme)
chain: MNFEGKIALVTGASRGIGRAIAETLAARGAKVIGTATSENGAQAISDYLGANGKGLMLNVTDPASIESVLEKIRAEFGEVDILVNNAGITRDNLLMRMKDEEWNDIIETNLSSVFRLSKAVMRAMMKKRHGRIITIGSVVGTMGNGGQANYAAAKAGLIGFSKSLAREVASRGITVNVVAPGFIETDMTRALSDDQRAGILAQVPAGRLGGAQEIANAVAFLASDEAAYITGETLHVNGGMYMV
notes: FabG 3-oxoacyl-ACP reductase, E. coli; titrated with 0.5 mM NAD+ in the buffer; also called KR; source: E. coli BL21 (DE3), purified (Ni-IMAC, Superdex 75)
B5: octanoyl-AcpP (C8-AcpP), E. coli acyl carrier protein (natural protein)
chain: B1 chain
modifications: octanoyl pantethenamide probe loaded (stable C8 acyl analog); uniformly 15N labeled and perdeuterated
notes: acyl carrier protein AcpP, E. coli; PDB 2FAD is heptanoyl-AcpP, used for docking only; also called 15N-C8-AcpP; source: E. coli BL21 (DE3), M9 minimal media with 15N NH4Cl and D2O, purified; made apo with P. aeruginosa ACPH, then loaded with CoaA, CoaD, CoaE and Sfp
B6: FabG, E. coli ketoreductase (enzyme)
chain: B4 chain
notes: ketoreductase FabG (3-oxoacyl-ACP reductase), E. coli; Titrated with 0.5 mM NAD+ present; also called KR; source: E. coli BL21 (DE3), purified (Ni-IMAC, Superdex 75)
B7: FabI, E. coli enoylreductase (enzyme)
chain: B3 chain
notes: enoylreductase FabI (enoyl-ACP reductase [NADH]), E. coli; Titrated with 0.5 mM NAD+ present; also called ER; source: E. coli BL21 (DE3), purified (Ni-IMAC, Superdex 75)

How the values were obtained:
FabB (Escherichia coli) = FabB (Escherichia coli) (UniProt P0A953); assay: NMR titration (TITAN); conditions: cited from earlier work
FabB (Escherichia coli), sequence (P0A953 whole entry): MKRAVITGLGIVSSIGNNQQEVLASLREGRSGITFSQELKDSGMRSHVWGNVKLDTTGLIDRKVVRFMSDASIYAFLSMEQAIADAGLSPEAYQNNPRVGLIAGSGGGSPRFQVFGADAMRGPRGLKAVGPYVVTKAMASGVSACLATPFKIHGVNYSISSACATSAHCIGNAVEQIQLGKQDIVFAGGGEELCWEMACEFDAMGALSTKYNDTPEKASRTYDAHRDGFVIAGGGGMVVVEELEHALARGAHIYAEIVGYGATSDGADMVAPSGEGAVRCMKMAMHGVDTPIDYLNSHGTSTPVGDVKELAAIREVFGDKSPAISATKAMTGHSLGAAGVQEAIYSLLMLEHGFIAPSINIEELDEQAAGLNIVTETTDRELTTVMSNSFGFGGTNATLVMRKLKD

[1] = biological target: B2; assay: NMR titration; 1H-15N HSQC of perdeuterated 15N-C8-AcpP with increasing unlabeled partner protein, five points; TITAN 2D lineshape analysis, flexible stoichiometry model, error from 300 bootstrap steps; 37 °C, 10 mM potassium phosphate pH 7.4, 0.5 mM TCEP, 0.1% NaN3; conditions: both partners purified
[2] = biological target: T1, TesA, E. coli thioesterase; assay: as above; conditions: both partners purified
[3] = biological target: B3; assay: NMR titration; 1H-15N HSQC of perdeuterated 15N-C8-AcpP with increasing unlabeled partner protein, five points; TITAN 2D lineshape analysis, flexible stoichiometry model, error from 300 bootstrap steps; 37 °C, 10 mM potassium phosphate pH 7.4, 0.5 mM TCEP, 0.5 mM NAD+, 0.1% NaN3; conditions: both partners purified
[4] = biological target: B1; assay: NMR titration; 1H-15N HSQC of perdeuterated 15N-C8-AcpP with increasing unlabeled partner protein, five points; TITAN 2D lineshape analysis, flexible stoichiometry model, error from 300 bootstrap steps; 37 °C, 10 mM potassium phosphate pH 7.4, 0.5 mM TCEP, 0.1% NaN3; conditions: both partners purified
[5] = biological target: B1; assay: NMR titration; 1H-15N HSQC of perdeuterated 15N-C8-AcpP with increasing unlabeled partner protein, five points; TITAN 2D lineshape analysis, flexible stoichiometry model, error from 300 bootstrap steps; 37 °C, 10 mM potassium phosphate pH 7.4, 0.5 mM TCEP, 0.5 mM NAD+, 0.1% NaN3; conditions: both partners purified
[6] = biological target: T2, FabF, E. coli elongating ketosynthase; assay: NMR titration; 1H-15N HSQC of 15N, perdeuterated C8-AcpP titrated with unlabeled partner, at least five points; 37 °C; 10 mM potassium phosphate pH 7.4, 0.5 mM TCEP, 0.1% NaN3; TITAN 2D lineshape analysis, flexible stoichiometry model; conditions: both partners purified
[7] = biological target: T3, TesA, E. coli thioesterase; assay: as above; conditions: both partners purified
[8] = biological target: B6; assay: NMR titration; 1H-15N HSQC of 15N, perdeuterated C8-AcpP titrated with unlabeled partner, at least five points; 37 °C; 10 mM potassium phosphate pH 7.4, 0.5 mM TCEP, 0.5 mM NAD+, 0.1% NaN3; TITAN 2D lineshape analysis, flexible stoichiometry model; conditions: both partners purified
[9] = biological target: B7; assay: as above; conditions: both partners purified
[10] = biological target: B5; assay: as above; conditions: both partners purified

AcpP (from UniProt P0A6A8)
Kd (FabB (Escherichia coli)): 37.6 µM

B1
Kd [1]: 6.9 µM
koff [1]: 3350 s⁻¹
Kd [2]: 13 µM
koff [2]: 9750 s⁻¹
Kd [3]: 1.6 µM
koff [3]: 6360 s⁻¹

B2
stoichiometry N [4]: 1.3

B3
stoichiometry N [5]: 1.2

B4
stoichiometry N [5]: 2.2

B5
Kd [6]: 8.3 µM
koff [6]: 3510 s⁻¹
Kd [7]: 12.5 µM
koff [7]: 9720 s⁻¹
Kd [8]: 52.3 µM
koff [8]: 3560 s⁻¹
Kd [9]: 1.7 µM
koff [9]: 8500 s⁻¹

B6
stoichiometry N [10]: 2

B7
stoichiometry N [10]: ~1
